Assay results from US9657062B2, “Ghrelin analogues” (Zealand Pharma A/S, priority 2012, dated 2017).
Bridges are numbered along the chain shown (N, C = ends). [ ]: non-standard residue; d: D form. The star is where a group is joined. Octanoyl = CCCCCCCC(=O)*; Dap = NC[C@H](N)C(=O)O; Aib = CC(C)(N)C(=O)O; Octyl = CCCCCCCC*

B1: H-Aib-S-S(O-octyl)-FLSPEHQRVQQRKESKKPPAKLQPR-OH (peptide)
peptide: H-[Aib]SS(Octyl)FLSPEHQRVQQRKESKKPPAKLQPR-OH
SMILES: CCCCCCCCOC[C@H](NC(=O)[C@H](CO)NC(=O)C(C)(C)N)C(=O)N[C@@H](Cc1ccccc1)C(=O)N[C@@H](CC(C)C)C(=O)N[C@@H](CO)C(=O)N1CCC[C@H]1C(=O)N[C@@H](CCC(=O)O)C(=O)N[C@@H](Cc1c[nH]cn1)C(=O)N[C@@H](CCC(N)=O)C(=O)N[C@@H](CCCNC(=N)N)C(=O)N[C@H](C(=O)N[C@@H](CCC(N)=O)C(=O)N[C@@H](CCC(N)=O)C(=O)N[C@@H](CCCNC(=N)N)C(=O)N[C@@H](CCCCN)C(=O)N[C@@H](CCC(=O)O)C(=O)N[C@@H](CO)C(=O)N[C@@H](CCCCN)C(=O)N[C@@H](CCCCN)C(=O)N1CCC[C@H]1C(=O)N1CCC[C@H]1C(=O)N[C@@H](C)C(=O)N[C@@H](CCCCN)C(=O)N[C@@H](CC(C)C)C(=O)N[C@@H](CCC(N)=O)C(=O)N1CCC[C@H]1C(=O)N[C@@H](CCCNC(=N)N)C(=O)O)C(C)C
B2: H-PS-S(O-octyl)-FLSPEHE()RVQK()RKESKKPPAKLQPR-NH2 (peptide)
peptide: H-PSS(Octyl)FLSPEHERVQKRKESKKPPAKLQPR-NH2
modifications: lactam 10-14
SMILES: CCCCCCCCOC[C@H](NC(=O)[C@H](CO)NC(=O)[C@@H]1CCCN1)C(=O)N[C@@H](Cc1ccccc1)C(=O)N[C@@H](CC(C)C)C(=O)N[C@@H](CO)C(=O)N1CCC[C@H]1C(=O)N[C@@H](CCC(=O)O)C(=O)N[C@@H](Cc1c[nH]cn1)C(=O)N[C@H]1CCC(=O)NCCCC[C@@H](C(=O)N[C@@H](CCCNC(=N)N)C(=O)N[C@@H](CCCCN)C(=O)N[C@@H](CCC(=O)O)C(=O)N[C@@H](CO)C(=O)N[C@@H](CCCCN)C(=O)N[C@@H](CCCCN)C(=O)N2CCC[C@H]2C(=O)N2CCC[C@H]2C(=O)N[C@@H](C)C(=O)N[C@@H](CCCCN)C(=O)N[C@@H](CC(C)C)C(=O)N[C@@H](CCC(N)=O)C(=O)N2CCC[C@H]2C(=O)N[C@@H](CCCNC(=N)N)C(N)=O)NC(=O)[C@H](CCC(N)=O)NC(=O)[C@H](C(C)C)NC(=O)[C@H](CCCNC(=N)N)NC1=O
B3: H-PS-Dap(N-octanoyl)-FL-NH2 (peptide)
peptide: H-PS[Dap](Octanoyl)FL-NH2
SMILES: CCCCCCCC(=O)NC[C@H](NC(=O)[C@H](CO)NC(=O)[C@@H]1CCCN1)C(=O)N[C@@H](Cc1ccccc1)C(=O)N[C@@H](CC(C)C)C(N)=O
B4: H-GS-S(octanoyl)-FLSPE()HQRK()QQRKESKKPPAKLQPR-OH (peptide)
peptide: H-GSS(Octanoyl)FLSPEHQRKQQRKESKKPPAKLQPR-OH
modifications: lactam 8-12
SMILES: CCCCCCCC(=O)OC[C@H](NC(=O)[C@H](CO)NC(=O)CN)C(=O)N[C@@H](Cc1ccccc1)C(=O)N[C@@H](CC(C)C)C(=O)N[C@@H](CO)C(=O)N1CCC[C@H]1C(=O)N[C@H]1CCC(=O)NCCCC[C@@H](C(=O)N[C@@H](CCC(N)=O)C(=O)N[C@@H](CCC(N)=O)C(=O)N[C@@H](CCCNC(=N)N)C(=O)N[C@@H](CCCCN)C(=O)N[C@@H](CCC(=O)O)C(=O)N[C@@H](CO)C(=O)N[C@@H](CCCCN)C(=O)N[C@@H](CCCCN)C(=O)N2CCC[C@H]2C(=O)N2CCC[C@H]2C(=O)N[C@@H](C)C(=O)N[C@@H](CCCCN)C(=O)N[C@@H](CC(C)C)C(=O)N[C@@H](CCC(N)=O)C(=O)N2CCC[C@H]2C(=O)N[C@@H](CCCNC(=N)N)C(=O)O)NC(=O)[C@H](CCCNC(=N)N)NC(=O)[C@H](CCC(N)=O)NC(=O)[C@H](Cc2c[nH]cn2)NC1=O
B5: H-PS-Dap(N-octanoyl)-FLS-NH2 (peptide)
peptide: H-PS[Dap](Octanoyl)FLS-NH2
SMILES: CCCCCCCC(=O)NC[C@H](NC(=O)[C@H](CO)NC(=O)[C@@H]1CCCN1)C(=O)N[C@@H](Cc1ccccc1)C(=O)N[C@@H](CC(C)C)C(=O)N[C@@H](CO)C(N)=O
B6: H-GS-S(octanoyl)-FLSPEHE()RVQK()RKESKKPPAKLQPR-OH (peptide)
peptide: H-GSS(Octanoyl)FLSPEHERVQKRKESKKPPAKLQPR-OH
modifications: lactam 10-14
SMILES: CCCCCCCC(=O)OC[C@H](NC(=O)[C@H](CO)NC(=O)CN)C(=O)N[C@@H](Cc1ccccc1)C(=O)N[C@@H](CC(C)C)C(=O)N[C@@H](CO)C(=O)N1CCC[C@H]1C(=O)N[C@@H](CCC(=O)O)C(=O)N[C@@H](Cc1c[nH]cn1)C(=O)N[C@H]1CCC(=O)NCCCC[C@@H](C(=O)N[C@@H](CCCNC(=N)N)C(=O)N[C@@H](CCCCN)C(=O)N[C@@H](CCC(=O)O)C(=O)N[C@@H](CO)C(=O)N[C@@H](CCCCN)C(=O)N[C@@H](CCCCN)C(=O)N2CCC[C@H]2C(=O)N2CCC[C@H]2C(=O)N[C@@H](C)C(=O)N[C@@H](CCCCN)C(=O)N[C@@H](CC(C)C)C(=O)N[C@@H](CCC(N)=O)C(=O)N2CCC[C@H]2C(=O)N[C@@H](CCCNC(=N)N)C(=O)O)NC(=O)[C@H](CCC(N)=O)NC(=O)[C@H](C(C)C)NC(=O)[C@H](CCCNC(=N)N)NC1=O
B7: H-GS-S(octanoyl)-FLSPEHQRVQQRK()ESKE()PPAKLQPR-OH (peptide)
peptide: H-GSS(Octanoyl)FLSPEHQRVQQRKESKEPPAKLQPR-OH
modifications: lactam 16-20
SMILES: CCCCCCCC(=O)OC[C@H](NC(=O)[C@H](CO)NC(=O)CN)C(=O)N[C@@H](Cc1ccccc1)C(=O)N[C@@H](CC(C)C)C(=O)N[C@@H](CO)C(=O)N1CCC[C@H]1C(=O)N[C@@H](CCC(=O)O)C(=O)N[C@@H](Cc1c[nH]cn1)C(=O)N[C@@H](CCC(N)=O)C(=O)N[C@@H](CCCNC(=N)N)C(=O)N[C@H](C(=O)N[C@@H](CCC(N)=O)C(=O)N[C@@H](CCC(N)=O)C(=O)N[C@@H](CCCNC(=N)N)C(=O)N[C@H]1CCCCNC(=O)CC[C@@H](C(=O)N2CCC[C@H]2C(=O)N2CCC[C@H]2C(=O)N[C@@H](C)C(=O)N[C@@H](CCCCN)C(=O)N[C@@H](CC(C)C)C(=O)N[C@@H](CCC(N)=O)C(=O)N2CCC[C@H]2C(=O)N[C@@H](CCCNC(=N)N)C(=O)O)NC(=O)[C@H](CCCCN)NC(=O)[C@H](CO)NC(=O)[C@H](CCC(=O)O)NC1=O)C(C)C
B8: H-PS-Dap(N-octanoyl)-FLSP-NH2 (peptide)
peptide: H-PS[Dap](Octanoyl)FLSP-NH2
SMILES: CCCCCCCC(=O)NC[C@H](NC(=O)[C@H](CO)NC(=O)[C@@H]1CCCN1)C(=O)N[C@@H](Cc1ccccc1)C(=O)N[C@@H](CC(C)C)C(=O)N[C@@H](CO)C(=O)N1CCC[C@H]1C(N)=O
B9: H-PS-S(O-octyl)-FLSPE()HQRK()QQRKESKKPPAKLQPR-NH2 (peptide)
peptide: H-PSS(Octyl)FLSPEHQRKQQRKESKKPPAKLQPR-NH2
modifications: lactam 8-12
SMILES: CCCCCCCCOC[C@H](NC(=O)[C@H](CO)NC(=O)[C@@H]1CCCN1)C(=O)N[C@@H](Cc1ccccc1)C(=O)N[C@@H](CC(C)C)C(=O)N[C@@H](CO)C(=O)N1CCC[C@H]1C(=O)N[C@H]1CCC(=O)NCCCC[C@@H](C(=O)N[C@@H](CCC(N)=O)C(=O)N[C@@H](CCC(N)=O)C(=O)N[C@@H](CCCNC(=N)N)C(=O)N[C@@H](CCCCN)C(=O)N[C@@H](CCC(=O)O)C(=O)N[C@@H](CO)C(=O)N[C@@H](CCCCN)C(=O)N[C@@H](CCCCN)C(=O)N2CCC[C@H]2C(=O)N2CCC[C@H]2C(=O)N[C@@H](C)C(=O)N[C@@H](CCCCN)C(=O)N[C@@H](CC(C)C)C(=O)N[C@@H](CCC(N)=O)C(=O)N2CCC[C@H]2C(=O)N[C@@H](CCCNC(=N)N)C(N)=O)NC(=O)[C@H](CCCNC(=N)N)NC(=O)[C@H](CCC(N)=O)NC(=O)[C@H](Cc2c[nH]cn2)NC1=O
B10: H-PS-Dap(N-octanoyl)-FLSPEHSRVSSRKESKKPPAKLSPR-NH2 (peptide)
peptide: H-PS[Dap](Octanoyl)FLSPEHSRVSSRKESKKPPAKLSPR-NH2
SMILES: CCCCCCCC(=O)NC[C@H](NC(=O)[C@H](CO)NC(=O)[C@@H]1CCCN1)C(=O)N[C@@H](Cc1ccccc1)C(=O)N[C@@H](CC(C)C)C(=O)N[C@@H](CO)C(=O)N1CCC[C@H]1C(=O)N[C@@H](CCC(=O)O)C(=O)N[C@@H](Cc1c[nH]cn1)C(=O)N[C@@H](CO)C(=O)N[C@@H](CCCNC(=N)N)C(=O)N[C@H](C(=O)N[C@@H](CO)C(=O)N[C@@H](CO)C(=O)N[C@@H](CCCNC(=N)N)C(=O)N[C@@H](CCCCN)C(=O)N[C@@H](CCC(=O)O)C(=O)N[C@@H](CO)C(=O)N[C@@H](CCCCN)C(=O)N[C@@H](CCCCN)C(=O)N1CCC[C@H]1C(=O)N1CCC[C@H]1C(=O)N[C@@H](C)C(=O)N[C@@H](CCCCN)C(=O)N[C@@H](CC(C)C)C(=O)N[C@@H](CO)C(=O)N1CCC[C@H]1C(=O)N[C@@H](CCCNC(=N)N)C(N)=O)C(C)C
B11: H-PS-Dap(N-octanoyl)-FLSPEHQRVQQRKESKKPPA-NH2 (peptide)
peptide: H-PS[Dap](Octanoyl)FLSPEHQRVQQRKESKKPPA-NH2
SMILES: CCCCCCCC(=O)NC[C@H](NC(=O)[C@H](CO)NC(=O)[C@@H]1CCCN1)C(=O)N[C@@H](Cc1ccccc1)C(=O)N[C@@H](CC(C)C)C(=O)N[C@@H](CO)C(=O)N1CCC[C@H]1C(=O)N[C@@H](CCC(=O)O)C(=O)N[C@@H](Cc1c[nH]cn1)C(=O)N[C@@H](CCC(N)=O)C(=O)N[C@@H](CCCNC(=N)N)C(=O)N[C@H](C(=O)N[C@@H](CCC(N)=O)C(=O)N[C@@H](CCC(N)=O)C(=O)N[C@@H](CCCNC(=N)N)C(=O)N[C@@H](CCCCN)C(=O)N[C@@H](CCC(=O)O)C(=O)N[C@@H](CO)C(=O)N[C@@H](CCCCN)C(=O)N[C@@H](CCCCN)C(=O)N1CCC[C@H]1C(=O)N1CCC[C@H]1C(=O)N[C@@H](C)C(N)=O)C(C)C

Each binder was assayed against human growth hormone secretagogue receptor type 1a (human, UniProt Q92847 1-366) (assay: cell-based or functional assay).
Sequence of human growth hormone secretagogue receptor type 1a (Q92847 whole entry): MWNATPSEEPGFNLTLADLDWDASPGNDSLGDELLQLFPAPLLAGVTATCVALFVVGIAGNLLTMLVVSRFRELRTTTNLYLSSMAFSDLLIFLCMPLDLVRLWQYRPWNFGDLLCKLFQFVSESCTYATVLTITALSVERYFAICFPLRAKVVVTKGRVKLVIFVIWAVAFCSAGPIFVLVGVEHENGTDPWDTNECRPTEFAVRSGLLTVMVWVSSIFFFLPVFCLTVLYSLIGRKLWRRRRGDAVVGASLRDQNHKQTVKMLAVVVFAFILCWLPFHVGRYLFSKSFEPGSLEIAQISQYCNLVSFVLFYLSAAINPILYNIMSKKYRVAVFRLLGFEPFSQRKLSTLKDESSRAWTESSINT

In order of falling “EC50 (nM); Ca2+ induction in HEK293 cells stably expressing the human ghrelin receptor” value:
1. B3  1.69 nM
2. B7  1.29 nM
3. B5  1.2 nM
4. B6  0.597 nM
5. B4  0.534 nM
6. B1  0.46 nM
7. B9  0.365 nM
8. B8  0.26 nM
9. H-PS[NH‑CH(n-C10H21)‑C(O)]FLSPEHQRVQQRKESKKPPA-NH2 [H-PS-[NH-CH(n-C10H21)-C(O)]-FLSPEHQRVQQRKESKKPPA-NH2]  0.255 nM
10. B10  0.224 nM
11. PSSFLSPEHQRVQQRKESKKPPAKLQPR (Dap(N-octanoyl) at position 3; C-terminal amide (-NH2)) [H-PS-Dap(N-octanoyl)-FLSPEHQRVQQRKESKKPPAKLQPR-NH2]  0.193 nM
12. H-PS[NH‑CH(n-C10H21)‑C(O)]FLSPEHQRVQQRKES-NH2 [H-PS-[NH-CH(n-C10H21)-C(O)]-FLSPEHQRVQQRKES-NH2]  0.164 nM
13. B2  0.155 nM
14. B11  0.136 nM
